Measurements published in patent US20200040103A1.

Key:
[1] = target: recombinant human KLK5 (human) (UniProt Q9Y337); experiment: pro-KLK7 LC/MS assay, 5 nM KLK5
[2] = target: recombinant human KLK5 (human) (UniProt Q9Y337); experiment: pro-KLK7 coupled assay, 5 nM KLK5
[3] = target: recombinant human KLK5 (human) (UniProt Q9Y337); experiment: pro-KLK1 LC/MS assay, 0.5 nM KLK5
[4] = target: recombinant human KLK5 (human) (UniProt Q9Y337); experiment: Kiapp assay curve, 0.125 nM KLK5, Z-VPR-pNA
[5] = target: recombinant human KLK5 (human) (UniProt Q9Y337); experiment: Kiapp assay curve, 0.250 nM KLK5, Z-VPR-pNA
[6] = target: recombinant human KLK5 (human) (UniProt Q9Y337); experiment: Kiapp assay curve, 0.500 nM KLK5, Z-VPR-pNA
[7] = target: recombinant human KLK5 (human) (UniProt Q9Y337); experiment: pro-KLK1 coupled assay, 0.5 nM KLK5
[8] = target: recombinant human KLK5 (human) (UniProt Q9Y337); experiment: Kiapp, KLK5 0.5-0.0625 nM, Z-VPR-pNA
[9] = target: recombinant human KLK5 (human) (UniProt Q9Y337); experiment: KLK5 direct activity assay, 5 nM KLK5, Boc-VPR-AMC
[10] = target: recombinant human KLK5 (human) (UniProt Q9Y337); experiment: direct activity assay, 5 nM KLK5, Boc-VPR-AMC
[11] = target: recombinant human KLK5 (human) (UniProt Q9Y337); experiment: pro-KLK1 coupled assay, 0.5 nM KLK5, 31.25 nM pro-KLK1, PFR-AMC
[12] = target: recombinant human KLK5 (human) (UniProt Q9Y337); experiment: SPR BIAcore T200, antibody captured by anti-human Fc, human KLK5 as analyte, 37 C
[13] = target: recombinant human KLK5 (human) (UniProt Q9Y337); experiment: Kiapp as the y-intercept of the line of IC50 (nM) versus KLK5 (nM), Z-VPR-pNA
[14] = target: recombinant human KLK5 (human) (UniProt Q9Y337); experiment: pro-KLK7 LC/MS assay, 5 nM KLK5, 15 nM pro-KLK7; box prints neither IC50 nor a unit, IC50 in nM per text
[15] = target: recombinant human KLK5 (human) (UniProt Q9Y337); experiment: pro-KLK1 LC/MS assay, 0.5 nM KLK5, 300 nM pro-KLK1; single value in the box; unit inferred, nM

Chain of recombinant human KLK5 (human) (Q9Y337 67-293): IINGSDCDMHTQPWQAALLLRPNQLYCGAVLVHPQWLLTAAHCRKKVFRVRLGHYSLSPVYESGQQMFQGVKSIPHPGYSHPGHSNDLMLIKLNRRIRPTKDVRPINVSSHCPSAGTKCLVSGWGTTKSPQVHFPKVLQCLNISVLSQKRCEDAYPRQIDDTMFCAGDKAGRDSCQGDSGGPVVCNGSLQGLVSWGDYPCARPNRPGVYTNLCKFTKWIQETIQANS

- IC50 [1]: 1440 pM
- IC50 [2]: 1530 pM
- IC50 [3]: 150 pM
- IC50 (read off the curve) [4]: 40 pM
- IC50 (read off the curve) [5]: 70 pM
- IC50 (read off the curve) [6]: 100 pM
- IC50 [7]: 140 pM
- Ki [8]: < 10 pM
- IC50 (read off the curve) [9]: 1000 to 2000 pM
- IC50 [10]: 1320 pM
- IC50 (read off the curve) [11]: 100 to 200 pM
- Kd [12]: < 1 pM
- koff [12]: < 1e-05 s⁻¹
- kon [12]: 2.93e+07 M⁻¹ s⁻¹
- Ki [13]: 8.1 pM
- IC50 [14]: 1440 pM
- IC50 [15]: 152 pM
B1: 3-3F5 (antibody, V domains shown)
VH: QSVKESEGGLFKPTDTLTLTCTVSGFSLNDYGVSWVRQAPGNGLEWIGAIGSSGVAWYANWAKGRSTITRNTNLNTVTLKMASLTAADTATYFCARDRDYGYRADDATSGMDLWGPGTLVTVSS
VL: AYDMTQTPASVEAAVGGTVTIKCQASESIGNALAWYQQKPGQPPKLLIYDASDLASGVPSRFKGSGSGTQFTLTISGVECADAATYYCQQGDSHNNVDNIFGGGTEVVVK
